Reference: paper PMC6691574

Columns and labels:
[1] = Nile red staining after PA, SGC 7901; conditions: glycan lost; control: wild-type CD36
[2] = fluorescent FA uptake kit, time course, SGC 7901; conditions: glycan lost; control: wild-type CD36

| Protein | other: transport activity [1] | other: transport activity [2] |
| --- | --- | --- |
| CD36: S468A (protein) parent chain: MGCDRNCGLIAGAVIGAVLAVFGGILMPVGDLLIQKTIKKQVVLEEGTIAFKNWVKTGTEVYRQFWIFDVQNPQEVMMNSSNIQVKQRGPYTYRVRFLAKENVTQDAEDNTVSFLQPNGAIFEPSLSVGTEADNFTVLNLAVAAASHIYQNQFVQMILNSLINKSKSSMFQVRTLRELLWGYRDPFLSLVPYPVTTTVGLFYPYNNTADGVYKVFNGKDNISKVAIIDTYKGKRNLSYWESHCDMINGTDAASFPPFVEKSQVLQFFSSDICRSIYAVFESDVNLKGIPVYRFVLPSKAFASPVENPDNYCFCTEKIISKNCTSYGVLDISKCKEGRPVYISLPHFLYASPDVSEPIDGLNPNEEEHRTYLDIEPITGFTLQFAKRLQVNLLVKPSEKIQVLKNLKRNYIVPILWLNETGTIGDEKANMFRSQVTGKINLLGLIEMILLSVGVVMFVAFMISYCACRSKTIK | decreases | decreases |
| CD36: T470A (protein) parent chain: MGCDRNCGLIAGAVIGAVLAVFGGILMPVGDLLIQKTIKKQVVLEEGTIAFKNWVKTGTEVYRQFWIFDVQNPQEVMMNSSNIQVKQRGPYTYRVRFLAKENVTQDAEDNTVSFLQPNGAIFEPSLSVGTEADNFTVLNLAVAAASHIYQNQFVQMILNSLINKSKSSMFQVRTLRELLWGYRDPFLSLVPYPVTTTVGLFYPYNNTADGVYKVFNGKDNISKVAIIDTYKGKRNLSYWESHCDMINGTDAASFPPFVEKSQVLQFFSSDICRSIYAVFESDVNLKGIPVYRFVLPSKAFASPVENPDNYCFCTEKIISKNCTSYGVLDISKCKEGRPVYISLPHFLYASPDVSEPIDGLNPNEEEHRTYLDIEPITGFTLQFAKRLQVNLLVKPSEKIQVLKNLKRNYIVPILWLNETGTIGDEKANMFRSQVTGKINLLGLIEMILLSVGVVMFVAFMISYCACRSKTIK | decreases | decreases |
| CD36: S468A/T470A (protein) parent chain: MGCDRNCGLIAGAVIGAVLAVFGGILMPVGDLLIQKTIKKQVVLEEGTIAFKNWVKTGTEVYRQFWIFDVQNPQEVMMNSSNIQVKQRGPYTYRVRFLAKENVTQDAEDNTVSFLQPNGAIFEPSLSVGTEADNFTVLNLAVAAASHIYQNQFVQMILNSLINKSKSSMFQVRTLRELLWGYRDPFLSLVPYPVTTTVGLFYPYNNTADGVYKVFNGKDNISKVAIIDTYKGKRNLSYWESHCDMINGTDAASFPPFVEKSQVLQFFSSDICRSIYAVFESDVNLKGIPVYRFVLPSKAFASPVENPDNYCFCTEKIISKNCTSYGVLDISKCKEGRPVYISLPHFLYASPDVSEPIDGLNPNEEEHRTYLDIEPITGFTLQFAKRLQVNLLVKPSEKIQVLKNLKRNYIVPILWLNETGTIGDEKANMFRSQVTGKINLLGLIEMILLSVGVVMFVAFMISYCACRSKTIK | decreases | decreases |
